In paper doi:10.1101/2022.09.26.507364 (bioRxiv, 2022):

Molecular target: T1, Long neurotoxin 1 (3L21_OXYSC) from O. scutellatus scutellatus (coastal taipan), recombinant long 3FTX (Oxyuranus scutellatus scutellatus)
T1 chain: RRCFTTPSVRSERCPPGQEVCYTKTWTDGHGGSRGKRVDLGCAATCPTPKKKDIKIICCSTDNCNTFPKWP
Assay: SPR

B1: Centi-3FTX-D09 (antibody, V domains shown)
VH: EVQLVESGGGFVQPGGSLRLSCAASGFTFSNFDMHWVRQSPGKGLEWVSGLDHSGGAHYAGSVKGRFTISREDAKNSLDLQMNNLRVDDTAVYFCVRGTLYHYTSGSYYSDAFDIWGQGTLVTVSS
VL: EIVLTQSPSSLSASVGDRVTITCQASQDISNYLNWYQQKPGKAPKLLIYAASSLESGVPSRFSGSGSGTDFTLTISSQQPEDFATYYCQQANSFPYTFGQGTKVEIK
  Kd: 0.49 nM
